Data published in the supplement of paper PMC10219994.
± gives the standard deviation of the averaged measurements.

B1: library; a variant is named by its letters at N, in order (parent)
chain: GAGACCGCAACTGAAAAGTTGTGGNNNNNATAGTGAGTCGCTGCCTGCAAAGACACAACT

Variants of: B1
Experiment: ligation selection enrichment (abundance after / before one-round selection) (fold); higher = more template-directed ligation activity
Conditions: with T7Psub CACGGAUGCUAAUACGACUCACUAUA; MgCl2 25 mM; 42 °C; 4 h; pH 8.5
Description: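 Lib-N5 ligase ribozyme library: five randomized core nucleotides (including the GGA motif of N8-1) within the fixed N8-1 ribozyme flanks, transcribed by T7 RNA polymerase with a 5'-triphosphate. The library (0.75 uM) was reacted with substrate T7Psub (6 uM) in 50 mM EPPS pH 8.5 with 25 mM MgCl2 at 42 C for 4 h. Ligated products were PAGE-purified, reverse transcribed and MiSeq sequenced; enrichment = abundance after selection / abundance before selection, with two independent replicates. The full transcript is built from the printed template flanks.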

Row | Variant | ligation selection enrichment
1 | GAGACCGCAACTGAAAAGTTGTGGCCGCAATAGTGAGTCGCTGCCTGCAAAGACACAACT [CCGCA] | 0.206 ± 0.0029
2 | GAGACCGCAACTGAAAAGTTGTGGCCGCCATAGTGAGTCGCTGCCTGCAAAGACACAACT [CCGCC] | 0.148 ± 0.0024
3 | GAGACCGCAACTGAAAAGTTGTGGCCGCGATAGTGAGTCGCTGCCTGCAAAGACACAACT [CCGCG] | 0.499 ± 0.059
4 | GAGACCGCAACTGAAAAGTTGTGGCCGCTATAGTGAGTCGCTGCCTGCAAAGACACAACT [CCGCT] | 0.4 ± 0.15
5 | GAGACCGCAACTGAAAAGTTGTGGGCCATATAGTGAGTCGCTGCCTGCAAAGACACAACT [GCCAT] | 1.25 ± 0.34
6 | GAGACCGCAACTGAAAAGTTGTGGGCGACATAGTGAGTCGCTGCCTGCAAAGACACAACT [GCGAC] | 1.92 ± 0.12
7 | GAGACCGCAACTGAAAAGTTGTGGGCGAAATAGTGAGTCGCTGCCTGCAAAGACACAACT [GCGAA] | 1.35 ± 0.24
8 | GAGACCGCAACTGAAAAGTTGTGGGCGATATAGTGAGTCGCTGCCTGCAAAGACACAACT [GCGAT] | 21.9 ± 4.1
9 | GAGACCGCAACTGAAAAGTTGTGGGCGAGATAGTGAGTCGCTGCCTGCAAAGACACAACT [GCGAG] | 1.37 ± 0.06
10 | GAGACCGCAACTGAAAAGTTGTGGGCCCCATAGTGAGTCGCTGCCTGCAAAGACACAACT [GCCCC] | 0.227 ± 0.022
11 | GAGACCGCAACTGAAAAGTTGTGGGCCCGATAGTGAGTCGCTGCCTGCAAAGACACAACT [GCCCG] | 0.803 ± 0.034
12 | GAGACCGCAACTGAAAAGTTGTGGGCCCTATAGTGAGTCGCTGCCTGCAAAGACACAACT [GCCCT] | 0.424 ± 0.17
13 | GAGACCGCAACTGAAAAGTTGTGGGCCCAATAGTGAGTCGCTGCCTGCAAAGACACAACT [GCCCA] | 0.209 ± 0.023
14 | GAGACCGCAACTGAAAAGTTGTGGCCGGCATAGTGAGTCGCTGCCTGCAAAGACACAACT [CCGGC] | 0.1797 ± 0.00074
15 | GAGACCGCAACTGAAAAGTTGTGGCCGGAATAGTGAGTCGCTGCCTGCAAAGACACAACT [CCGGA] | 0.278 ± 0.019
16 | GAGACCGCAACTGAAAAGTTGTGGACCGGATAGTGAGTCGCTGCCTGCAAAGACACAACT [ACCGG] | 0.409 ± 0.0084
17 | GAGACCGCAACTGAAAAGTTGTGGACCGAATAGTGAGTCGCTGCCTGCAAAGACACAACT [ACCGA] | 0.379 ± 0.054
18 | GAGACCGCAACTGAAAAGTTGTGGACCGCATAGTGAGTCGCTGCCTGCAAAGACACAACT [ACCGC] | 0.182 ± 0.016
19 | GAGACCGCAACTGAAAAGTTGTGGACCGTATAGTGAGTCGCTGCCTGCAAAGACACAACT [ACCGT] | 0.232 ± 0.081
20 | GAGACCGCAACTGAAAAGTTGTGGCCGACATAGTGAGTCGCTGCCTGCAAAGACACAACT [CCGAC] | 1.37 ± 0.061
21 | GAGACCGCAACTGAAAAGTTGTGGCCGATATAGTGAGTCGCTGCCTGCAAAGACACAACT [CCGAT] | 15.8 ± 4.6
22 | GAGACCGCAACTGAAAAGTTGTGGCCGAAATAGTGAGTCGCTGCCTGCAAAGACACAACT [CCGAA] | 0.831 ± 0.069

Row | Variant | ligation selection enrichment
23 | GAGACCGCAACTGAAAAGTTGTGGCCGAGATAGTGAGTCGCTGCCTGCAAAGACACAACT [CCGAG] | 0.853 ± 0.037
24 | GAGACCGCAACTGAAAAGTTGTGGGCGCTATAGTGAGTCGCTGCCTGCAAAGACACAACT [GCGCT] | 0.519 ± 0.19
25 | GAGACCGCAACTGAAAAGTTGTGGGCGCCATAGTGAGTCGCTGCCTGCAAAGACACAACT [GCGCC] | 0.191 ± 0.017
26 | GAGACCGCAACTGAAAAGTTGTGGGCGCAATAGTGAGTCGCTGCCTGCAAAGACACAACT [GCGCA] | 0.289 ± 0.025
27 | GAGACCGCAACTGAAAAGTTGTGGGCGCGATAGTGAGTCGCTGCCTGCAAAGACACAACT [GCGCG] | 0.558 ± 0.0074
28 | GAGACCGCAACTGAAAAGTTGTGGTCCGAATAGTGAGTCGCTGCCTGCAAAGACACAACT [TCCGA] | 0.205 ± 0.034
29 | GAGACCGCAACTGAAAAGTTGTGGTCCGTATAGTGAGTCGCTGCCTGCAAAGACACAACT [TCCGT] | 0.123 ± 0.096
30 | GAGACCGCAACTGAAAAGTTGTGGTCCGGATAGTGAGTCGCTGCCTGCAAAGACACAACT [TCCGG] | 0.133 ± 0.0031
31 | GAGACCGCAACTGAAAAGTTGTGGTCCGCATAGTGAGTCGCTGCCTGCAAAGACACAACT [TCCGC] | 0.113 ± 0.026
32 | GAGACCGCAACTGAAAAGTTGTGGACGGAATAGTGAGTCGCTGCCTGCAAAGACACAACT [ACGGA] | 0.204 ± 0.033
33 | GAGACCGCAACTGAAAAGTTGTGGACGGCATAGTGAGTCGCTGCCTGCAAAGACACAACT [ACGGC] | 0.122 ± 0.01
34 | GAGACCGCAACTGAAAAGTTGTGGTCCTGATAGTGAGTCGCTGCCTGCAAAGACACAACT [TCCTG] | 0.246 ± 0.011
35 | GAGACCGCAACTGAAAAGTTGTGGTCCTTATAGTGAGTCGCTGCCTGCAAAGACACAACT [TCCTT] | 0.232 ± 0.029
36 | GAGACCGCAACTGAAAAGTTGTGGTCCTAATAGTGAGTCGCTGCCTGCAAAGACACAACT [TCCTA] | 0.147 ± 0.063
37 | GAGACCGCAACTGAAAAGTTGTGGTCCTCATAGTGAGTCGCTGCCTGCAAAGACACAACT [TCCTC] | 0.107 ± 0.011
38 | GAGACCGCAACTGAAAAGTTGTGGGCCTCATAGTGAGTCGCTGCCTGCAAAGACACAACT [GCCTC] | 0.114 ± 0.0038
39 | GAGACCGCAACTGAAAAGTTGTGGGCCTGATAGTGAGTCGCTGCCTGCAAAGACACAACT [GCCTG] | 0.624 ± 0.06
40 | GAGACCGCAACTGAAAAGTTGTGGGCCTTATAGTGAGTCGCTGCCTGCAAAGACACAACT [GCCTT] | 0.162 ± 0.02
41 | GAGACCGCAACTGAAAAGTTGTGGGCCTAATAGTGAGTCGCTGCCTGCAAAGACACAACT [GCCTA] | 0.198 ± 0.017
42 | GAGACCGCAACTGAAAAGTTGTGGCCCTTATAGTGAGTCGCTGCCTGCAAAGACACAACT [CCCTT] | 0.213 ± 0.065
43 | GAGACCGCAACTGAAAAGTTGTGGCCCTCATAGTGAGTCGCTGCCTGCAAAGACACAACT [CCCTC] | 0.14 ± 0.025
44 | GAGACCGCAACTGAAAAGTTGTGGCCCTGATAGTGAGTCGCTGCCTGCAAAGACACAACT [CCCTG] | 0.425 ± 0.013
